Consider three molecules from article PMC7617797, “The phosphorylated trimeric SOSS1 complex and RNA polymerase II trigger liquid-liquid phase separation at double-strand breaks”.

For data set [1], the target named is T1, hSSB1;INTS3;c9orf80 (Homo sapiens;Homo sapiens?;Homo sapiens?, UniProt Q9BQ15;Q68E01;Q9NRY2 1-211;1-1043;1-104, ||). Kind of data set: EMSA; EMSA: 25 mM Tris-HCl pH 7.5, 1 mM DTT, 5 mM MgCl2, 100 mM NaCl, 20 min at 37 C; 10 nM substrate; protein 22-167 nM (RPA 5-40 nM); 7.5% native PAGE, 0.5x TBE, 4. Conditions: protein: recombinant;recombinant;recombinant; tags: His6 (2BT);His6-TEV (438B);His6-TEV (438B); copies: 1;1;1; label: 5' Cy3; single strand.
T1 sequence (Q9BQ15 whole entry, chain 1 of 3): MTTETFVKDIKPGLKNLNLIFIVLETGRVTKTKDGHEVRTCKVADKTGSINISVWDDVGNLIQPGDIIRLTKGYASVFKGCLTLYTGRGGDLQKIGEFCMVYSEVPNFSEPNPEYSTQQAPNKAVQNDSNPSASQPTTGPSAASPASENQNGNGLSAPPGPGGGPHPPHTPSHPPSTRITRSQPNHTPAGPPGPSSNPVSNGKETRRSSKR
T1 sequence (Q68E01 whole entry, chain 2 of 3): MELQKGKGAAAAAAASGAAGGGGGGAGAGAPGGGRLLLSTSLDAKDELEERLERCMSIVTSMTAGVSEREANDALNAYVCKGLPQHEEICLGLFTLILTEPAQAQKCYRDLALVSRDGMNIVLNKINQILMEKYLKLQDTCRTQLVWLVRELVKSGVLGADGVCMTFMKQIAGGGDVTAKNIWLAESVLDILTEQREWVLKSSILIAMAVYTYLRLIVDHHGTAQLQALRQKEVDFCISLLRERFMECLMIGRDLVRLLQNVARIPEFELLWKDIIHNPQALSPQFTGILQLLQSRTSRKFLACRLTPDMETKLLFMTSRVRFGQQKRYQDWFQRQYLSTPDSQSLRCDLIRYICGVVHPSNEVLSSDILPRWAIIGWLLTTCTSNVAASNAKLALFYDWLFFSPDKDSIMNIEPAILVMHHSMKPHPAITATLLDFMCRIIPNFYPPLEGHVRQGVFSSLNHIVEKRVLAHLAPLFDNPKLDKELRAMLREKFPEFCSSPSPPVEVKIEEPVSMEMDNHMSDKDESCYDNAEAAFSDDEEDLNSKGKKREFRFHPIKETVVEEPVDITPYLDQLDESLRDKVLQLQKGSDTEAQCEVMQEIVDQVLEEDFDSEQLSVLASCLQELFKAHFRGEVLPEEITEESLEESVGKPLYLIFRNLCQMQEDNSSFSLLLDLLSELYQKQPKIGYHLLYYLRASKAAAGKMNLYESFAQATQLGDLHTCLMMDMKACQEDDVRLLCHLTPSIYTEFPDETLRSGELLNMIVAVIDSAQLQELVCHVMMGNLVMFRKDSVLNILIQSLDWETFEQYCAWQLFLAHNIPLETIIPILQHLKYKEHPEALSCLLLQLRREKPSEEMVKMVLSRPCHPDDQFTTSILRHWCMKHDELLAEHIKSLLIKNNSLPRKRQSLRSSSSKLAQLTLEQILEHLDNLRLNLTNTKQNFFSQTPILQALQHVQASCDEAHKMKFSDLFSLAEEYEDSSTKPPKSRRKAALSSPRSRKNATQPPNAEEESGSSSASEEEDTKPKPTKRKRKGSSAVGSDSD
T1 sequence (Q9NRY2 whole entry, chain 3 of 3): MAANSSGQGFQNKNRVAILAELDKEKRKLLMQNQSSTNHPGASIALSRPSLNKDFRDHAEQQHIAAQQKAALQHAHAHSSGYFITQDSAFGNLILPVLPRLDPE

Data set [2] addresses hSSB1 Y102A/Y115A (Homo sapiens, UniProt Q9BQ15 1-211, Y102A;Y115A). The description is as above. The conditions noted are these: protein: recombinant.
In data set [3] the target is hSSB1 Y115A (Homo sapiens, UniProt Q9BQ15 1-211, Y115A). Described as above. The conditions noted are these: protein: recombinant.
Sequence of hSSB1 Y115A (Q9BQ15 whole entry Y115A): as the sequence (Q9BQ15 whole entry, chain 1 of 3) above, with Y115A counted along it
Data set [4] deals with hSSB1 Y102A (Homo sapiens, UniProt Q9BQ15 1-211, Y102A). The data set is described as above. The conditions noted are these: protein: recombinant.
Sequence of hSSB1 Y102A (Q9BQ15 whole entry Y102A): as the sequence (Q9BQ15 whole entry, chain 1 of 3) above, with Y102A counted along it
The target of data set [5] is T1, hSSB1;INTS3;c9orf80. In words: competition EMSA; substrate pre-coated with RPA (10 or 30 nM); EMSA: 25 mM Tris-HCl pH 7.5, 1 mM DTT, 5 mM MgCl2, 100 mM NaCl, 20 min at 37 C; 10 nM substrate; protein 22-167 nM (RPA 5-40 nM); 7.5% native PAGE, 0.5x TBE, 4. Conditions: protein: recombinant;recombinant;recombinant; tags: His6 (2BT);His6-TEV (438B);His6-TEV (438B); copies: 1;1;1; label: 5' Cy3 on strand 1; 21-nt RNA paired to strand 1 in a 21-nt bubble; 20-bp flanking duplexes.

Where [6] appears, read: label: 5' Cy3 on strand 1, 21-nt RNA paired to strand 1 in a 21-nt bubble, 20-bp flanking duplexes.

Sequence of hSSB1 Y102A/Y115A (Q9BQ15 whole entry Y102A/Y115A): as the sequence (Q9BQ15 whole entry, chain 1 of 3) above, with Y102A, Y115A counted along it

B1: 21-mer ssDNA (pRMS630) (ssDNA)
DNA: GTGCCTTGCTAGGACATCTTT
Turning to B1, in data set [1], the binding result is “no binding”.

B2: 61-mer ssDNA (ssDNA)
DNA: GACGCTGCCGAATTCTACCAGTGCCTTGCTAGGACATCTTTGCCCACCTGCAGGTTCACCC
In the case of B2, the binding result is reported as “binds” in data set [2] (label: 5' Cy3, single strand); “binds” in data set [3] (label: 5' Cy3, single strand); “binds” in data set [4] (label: 5' Cy3, single strand).

B3: R-loop (mixed)
DNA 1: B2 DNA
DNA 2: GGGTGAACCTGCAGGTGGGCGGCTGCTCATCGTAGGTTAGTTGGTAGAATTCGGCAGCGTC
RNA: AAAGAUGUCCUAGCAAGGCAC
Take B3: the binding result in data set [2] (setting [6]), in data set [3] (setting [6]), in data set [4] (setting [6]) and in data set [5] was “binds” each time.
